Measured values reported in PMC10319725, “A mechanical-coupling mechanism in OSCA/TMEM63 channel mechanosensitivity” (Nature Communications, 2023).

Tests used:
[1] = biological target: the molecule itself; test: SEC; fluorescence-detection SEC (FSEC) of detergent-solubilised Expi293F cells (1% LMNG, 0.1% CHS; also DDM or GDN), Superose 6 increase 5/150 in TBS (20 mM Tris pH 8.0, 150 mM NaCl) with 10 uM LMNG, GFP fluorescence detected
[2] = biological target: the molecule itself; test: cryo-EM structure; purified AtOSCA1.1 reconstituted in MSPE3D1 lecithin nanodiscs, TBS
[3] = biological target: the molecule itself; test: cryo-EM structure; purified AtOSCA3.1 in a detergent environment; two conformations (contracted, extended) in one data set

B1: AtOSCA1.1-CGFP (natural protein, Arabidopsis thaliana)
chain: MATLKDIGVSAGINILTAFIFFIIFAFLRLQPFNDRVYFSKWYLRGLRSSPASGGGFAGRFVNLELRSYLKFLHWMPEALKMPERELIDHAGLDSVVYLRIYWLGLKIFAPIAMLAWAVLVPVNWTNNELELAKHFKNVTSSDIDKLTISNIPEGSNRFWAHIIMAYAFTIWTCYMLMKEYETVANMRLQFLASEGRRPDQFTVLVRNVPPDPDETVSELVEHFFLVNHPDNYLTHQVVCNANKLADLVSKKTKLQNWLDYYQLKYTRNNSQIRPITKLGCLGLCGQKVDAIEHYIAEVDKTSKEIAEERENVVNDQKSVMPASFVSFKTRWAAAVCAQTTQTRNPTEWLTEWAAEPRDIYWPNLAIPYVSLTVRRLVMNVAFFFLTFFFIIPIAFVQSLATIEGIEKVAPFLKVIIEKDFIKSLIQGLLAGIALKLFLIFLPAILMTMSKFEGFTSVSFLERRSASRYYIFNLVNVFLGSVIAGAAFEQLNSFLNQSPNQIPKTIGMAIPMKATFFITYIMVDGWAGVAGEILMLKPLIIYHLKNAFLVKTEKDREEAMNPGSIGFNTGEPQIQLYFLLGLVYAPVTPMLLPFILVFFALAYVVYRHQIINVYNQEYESAAAFWPDVHGRVITALIISQLLLMGLLGTKHAASAAPFLIALPVITIGFHRFCKGRFEPAFVRYPLQEAMMKDTLERAREPNLNLKGYLQDAYIHPVFKGGDNDDDGDMIGKLENEVIIVPTKRQSRRNTPAPSRISGESSPSLAVINGKEV
notes: AtOSCA1.1 from Arabidopsis thaliana, UniprotKB Q9XEA1; cDNA cloned into a C-terminally GFP-tagged BacMam vector; His8 and FLAG lie after GFP in the vector; also called Arabidopsis thaliana OSCA1.1; source: Expi293F, transfected, solubilised in LMNG-CHS, in cleared lysate; not shown: GFP, C-terminal, kept
For B1, the “stoichiometry N” value [1] was 2.

B2: AtOSCA1.1 in lipid nanodisc (natural protein, Arabidopsis thaliana)
chain: B1 chain
notes: AtOSCA1.1 from Arabidopsis thaliana, UniprotKB Q9XEA1; GFP removed by HRV3C protease; His8 and FLAG lie after GFP in the vector and were probably removed with it; Embedded in MSPE3D1 lecithin nanodiscs; also called extended state of AtOSCA1.1; not shown: GFP, C-terminal, cleaved
For B2, the “stoichiometry N” value [2] was 2.

B3: AtOSCA3.1 (natural protein, Arabidopsis thaliana)
chain: MEFGSFLVSLGTSFVIFVILMLLFTWLSRKSGNAPIYYPNRILKGLEPWEGTSLTRNPFAWMREALTSSEQDVVNLSGVDTAVHFVFLSTVLGIFACSSLLLLPTLLPLAATDNNIKNTKNATDTTSKGTFSQLDNLSMANITKKSSRLWAFLGAVYWISLVTYFFLWKAYKHVSSLRAQALMSADVKPEQFAILVRDMPAPPDGQTQKEFIDSYFREIYPETFYRSLVATENSKVNKIWEKLEGYKKKLARAEAILAATNNRPTNKTGFCGLVGKQVDSIEYYTELINESVAKLETEQKAVLAEKQQTAAVVFFTTRVAAASAAQSLHCQMVDKWTVTEAPEPRQLLWQNLNIKLFSRIIRQYFIYFFVAVTILFYMIPIAFVSAITTLKNLQRIIPFIKPVVEITAIRTVLESFLPQIALIVFLAMLPKLLLFLSKAEGIPSQSHAIRAASGKYFYFSVFNVFIGVTLAGTLFNTVKDIAKNPKLDMIINLLATSLPKSATFFLTYVALKFFIGYGLELSRIIPLIIFHLKKKYLCKTEAEVKEAWYPGDLSYATRVPGDMLILTITFCYSVIAPLILIFGITYFGLGWLVLRNQALKVYVPSYESYGRMWPHIHQRILAALFLFQVVMFGYLGAKTFFYTALVIPLIITSLIFGYVCRQKFYGGFEHTALEVACRELKQSPDLEEIFRAYIPHSLSSHKPEEHEFKGAMSRYQDFNAIAGV
notes: AtOSCA3.1 from Arabidopsis thaliana, UniprotKB Q9C8G5; also called contracted state of AtOSCA3.1; extended state of AtOSCA3.1; source: Expi293F infected by baculovirus, purified (DDM, TALON)
With B3 the “stoichiometry N” value [3] was 2.
